Assay results published in patent US20160251440A1 (Ablynx, published 2016).

Tests used:
[1] = biological target: T1, human CD4, cell-expressed (human, UniProt P01730 26-458); assay: FACS, THP-1 cells
T1 construct: whole, on cells

[2] = biological target: T1, human CD4, cell-expressed; assay: FACS, MOLM-13 cells
[3] = biological target: T1, human CD4, cell-expressed; assay: FACS, human T cells
[4] = biological target: T1, human CD4, cell-expressed; assay: FACS, MOLM-13 cells; remark: listed apart in the source
[5] = biological target: T1, human CD4, cell-expressed; assay: cell-based or functional assay
[6] = biological target: T1, human CD4, cell-expressed; assay: cell-based or functional assay; remark: listed apart in the source
[7] = biological target: T1, human CD4, cell-expressed; assay: cell-based or functional assay; remark: listed apart in the source
[8] = biological target: T1, human CD4, cell-expressed; assay: cell-based or functional assay; remark: listed apart in the source
[9] = biological target: T1, human CD4, cell-expressed; assay: FACS, Jurkat E6-1 cells (CD4 low)
[10] = biological target: T1, human CD4, cell-expressed; assay: FACS, Jurkat E6.1 cells (CD4 no or low)
[11] = biological target: T2, human IL12Rβ1, cell-expressed (human, UniProt P42701 24-662); assay: flow cytometry on isolated CD8+ T cells of donor D863, anti-Flag detection
T2 construct: whole, on cells; in the context of the heterodimeric receptor; also called IL12Rb1

[12] = biological target: T3, human CXCR4 (on cells, viral lipoparticles or membrane extracts) (human, UniProt P61073 1-352); assay: ELISA on coated hCXCR4 lipoparticles against null lipoparticles, anti-c-myc detection
T3 construct: whole, on cells; also called hCXCR4 VLPs; CXCR4-lip
T3 sequence (P61073 whole entry): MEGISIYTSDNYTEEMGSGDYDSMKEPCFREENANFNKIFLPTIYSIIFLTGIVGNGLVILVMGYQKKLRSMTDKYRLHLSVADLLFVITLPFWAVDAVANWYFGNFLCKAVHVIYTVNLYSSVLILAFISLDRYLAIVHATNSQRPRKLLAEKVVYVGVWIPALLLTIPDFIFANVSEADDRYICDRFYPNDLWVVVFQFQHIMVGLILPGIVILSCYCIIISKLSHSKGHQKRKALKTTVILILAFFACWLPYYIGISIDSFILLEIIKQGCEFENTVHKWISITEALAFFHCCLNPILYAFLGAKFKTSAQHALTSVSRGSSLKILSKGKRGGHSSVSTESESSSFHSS

[13] = biological target: T3, human CXCR4 (on cells, viral …); assay: FACS, Jurkat cells
[14] = biological target: T3, human CXCR4 (on cells, viral …); assay: FACS, MOLM-13 cells
[15] = biological target: T3, human CXCR4 (on cells, viral …); assay: cell-based or functional assay
[16] = biological target: T3, human CXCR4 (on cells, viral …); assay: cell-based or functional assay; remark: listed apart in the source
[17] = biological target: T3, human CXCR4 (on cells, viral …); assay: cell-based or functional assay; remark: listed apart in the source
[18] = biological target: T3, human CXCR4 (on cells, viral …); assay: cell-based or functional assay; remark: listed apart in the source
[19] = biological target: T3, human CXCR4 (on cells, viral …); assay: cell-based or functional assay; remark: listed apart in the source
[20] = biological target: T3, human CXCR4 (on cells, viral …); assay: cell-based or functional assay; remark: listed apart in the source
[21] = biological target: T3, human CXCR4 (on cells, viral …); assay: FACS, Jurkat E6-1 cells
[22] = biological target: T3, human CXCR4 (on cells, viral …); assay: [125I]-SDF-1 displacement, Hek-CXCR4 membrane extracts
[23] = biological target: T3, human CXCR4 (on cells, viral …); assay: flow cytometry on THP-1 cells (CXCR4 and IL-3Ra)
[24] = biological target: T4, recombinant IL-3Rα ectodomain (human, UniProt P26951 19-305); assay: ELISA on recombinant IL-3Ra ectodomain (both lower panels)
T4 construct: extracellular domain; also called recombinant IL-3Ra; biotinylated-IL-3Rα ectodomain
T4 sequence (looked up): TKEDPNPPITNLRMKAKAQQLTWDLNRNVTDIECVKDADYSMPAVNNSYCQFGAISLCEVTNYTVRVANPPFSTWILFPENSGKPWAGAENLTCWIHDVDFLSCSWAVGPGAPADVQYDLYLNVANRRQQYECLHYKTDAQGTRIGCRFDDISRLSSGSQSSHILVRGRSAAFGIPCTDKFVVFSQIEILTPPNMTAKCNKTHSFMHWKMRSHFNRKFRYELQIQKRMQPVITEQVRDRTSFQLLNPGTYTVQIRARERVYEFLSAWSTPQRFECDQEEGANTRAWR

[25] = biological target: T3, human CXCR4 (on cells, viral …); assay: flow cytometry on MOLM-13 cells (IL-3Ra higher than CXCR4)
[26] = biological target: T3, human CXCR4 (on cells, viral …); assay: flow cytometry on U-937 cells (CXCR4, virtually no IL-3Ra)
[27] = biological target: T3, human CXCR4 (on cells, viral …); assay: flow cytometry on THP-1 cells (CD4 and CXCR4), detection via tag

B1: 3F11 (VHH)
VHH: EVQLVESGGGSVQPGGSLTLSCGTSGRTFNVMGWFRQAPGKEREFVAAVRWSSTGIYYTQYADSVKSRFTISRDNAKNTVYLEMNSLKPEDTAVYYCAADTYNSNPARWDGYDFRGQGTQVTVSS
notes: also called CD4#8; 03F11
- EC50 [1]: 1 nM
- EC50 [2]: 0.7 nM
- EC50 [3]: 0.76 nM
- EC50 [4]: 0.6 nM
- IC50, HIV-1 NL4.3 neutralization, PBMCs [5]: 29.3 nM
- IC50, HIV-1 NL4.3 (X4), MT-4 [6]: 66.7 nM
- IC50, HIV-1 NL4.3 (X4), PBMC [6]: 580 nM
- IC50, HIV-1 NL4.3 (X4), U87 [6]: > 1330 nM
- IC50, HIV-1 NL4.3 wt, MT-4 [7]: 34.7 nM
- IC50, NL4.3 2G12 res., MT-4 [7]: 23.3 nM
- IC50, NL4.3 AMD-3100 res., MT-4 [7]: 22.7 nM
- IC50, NL4.3 CD4#8 res., MT-4 [7]: > 6700 nM
- IC50, NL4.3 CXCL-12res., MT-4 [7]: 153 nM
- IC50, NL4.3 CXCR4#2 res, MT-4 [7]: > 6700 nM
- IC50, HIV-1 HE, MT-4 [8]: 10 nM
- IC50, HIV-1 NL4.3, MT-4 [8]: 34.7 nM
- IC50, HIV-2 ROD, MT-4 [8]: 22.7 nM
- EC50 [9]: 61 nM
- EC50 [10]: 1.1 nM
- binding result [11]: no binding (tested: 250 nM)
- binding result [12]: no binding (tested: 100 nM)

B2: 281F12 (VHH)
VHH: EVQLVESGGGLVQAGDSLRLSCAASGRAFSRYAMGWFRQAPGKEREFVAAIGWGPSKTNYADSVKGRFTISRDNAKNTVYLQMNTLKPEDTAVYSCAAKFVNTDSTWSRSEMYTYWGQGTLVTVSS
notes: also called CXCR4#2; 4CXCR281F12-FLAG3-HIS6
- EC50 [13]: 7.8 nM
- EC50 [14]: 5.2 nM
- IC50, SDF-1 chemotaxis, Jurkat E6-1 [15]: 84.2 nM
- IC50, SDF-1 chemotaxis, MOLM-13 [15]: 86 nM
- IC50, HIV-1 BaL (R5), PBMC [16]: > 1670 nM
- IC50, HIV-1 NL4.3 (X4), MT-4 [16]: 67.1 nM
- IC50, HIV-1 NL4.3 (X4), PBMC [16]: 29.3 nM
- IC50, HIV-1 NL4.3 (X4), U87 [16]: > 6670 nM
- IC50, HIV-1 NL4.3 wt, MT-4 [17]: 22.7 nM
- IC50, NL4.3 2G12 res., MT-4 [17]: 17.3 nM
- IC50, NL4.3 AMD-3100 res., MT-4 [17]: > 1670 nM
- IC50, NL4.3 CD4#8 res., MT-4 [17]: 87.3 nM
- IC50, NL4.3 CXCL-12res., MT-4 [17]: 220 nM
- IC50, NL4.3 CXCR4#2 res, MT-4 [17]: 2330 nM
- IC50, HIV-1 HE, MT-4 [18]: 10 nM
- IC50, HIV-1 NL4.3, MT-4 [18]: 22.7 nM
- IC50, HIV-2 ROD, MT-4 [18]: 86.7 nM
- IC50, SDF-1 chemotaxis, Jurkat [19]: 68 nM
- IC50, CXCL-12 chemotaxis, Jurkat E6-1 [20]: 96.8 nM
- IC50, CXCL-12 chemotaxis, MOLM-13 [20]: 86 nM
- EC50 [21]: 7 nM
- Ki [22]: 26.9 nM
- EC50 (read off the curve) [23]: ~20 nM
- binding result [24]: no binding (tested: 1E-6 M)
- EC50 (read off the curve) [25]: ~20 nM
- EC50 (read off the curve) [26]: ~10 nM
- EC50 (read off the curve) [27]: ~6 nM
